The source of these data is publication PMC11624282, “PARP1 condensates differentially partition DNA repair proteins and enhance DNA ligation”.

Data set [1] deals with T1, mCherry-PARP1 (Homo sapiens, UniProt P09874 1-1014). Briefly: condensation, fluorescence microscopy; 4 µM protein; lost at high salt; reentrant at high DNA; Condensation (DIC, PARP1 truncations): 20 mM Tris pH 7.5, 50 mM NaCl, 7.5 mM MgCl2, 1 mM DTT; DNA curtains: 25-150 mM NaCl tested; temperature not stated. The following applies: protein: recombinant; tags: mCherry (pET-SUMO-mCherry-PARP1); label: Cy5 at 5' of S10 (labelled version, 10% where stated); three annealed oligos, central nick, blunt ends.
T1 sequence (P09874 whole entry, the tested form may be a part): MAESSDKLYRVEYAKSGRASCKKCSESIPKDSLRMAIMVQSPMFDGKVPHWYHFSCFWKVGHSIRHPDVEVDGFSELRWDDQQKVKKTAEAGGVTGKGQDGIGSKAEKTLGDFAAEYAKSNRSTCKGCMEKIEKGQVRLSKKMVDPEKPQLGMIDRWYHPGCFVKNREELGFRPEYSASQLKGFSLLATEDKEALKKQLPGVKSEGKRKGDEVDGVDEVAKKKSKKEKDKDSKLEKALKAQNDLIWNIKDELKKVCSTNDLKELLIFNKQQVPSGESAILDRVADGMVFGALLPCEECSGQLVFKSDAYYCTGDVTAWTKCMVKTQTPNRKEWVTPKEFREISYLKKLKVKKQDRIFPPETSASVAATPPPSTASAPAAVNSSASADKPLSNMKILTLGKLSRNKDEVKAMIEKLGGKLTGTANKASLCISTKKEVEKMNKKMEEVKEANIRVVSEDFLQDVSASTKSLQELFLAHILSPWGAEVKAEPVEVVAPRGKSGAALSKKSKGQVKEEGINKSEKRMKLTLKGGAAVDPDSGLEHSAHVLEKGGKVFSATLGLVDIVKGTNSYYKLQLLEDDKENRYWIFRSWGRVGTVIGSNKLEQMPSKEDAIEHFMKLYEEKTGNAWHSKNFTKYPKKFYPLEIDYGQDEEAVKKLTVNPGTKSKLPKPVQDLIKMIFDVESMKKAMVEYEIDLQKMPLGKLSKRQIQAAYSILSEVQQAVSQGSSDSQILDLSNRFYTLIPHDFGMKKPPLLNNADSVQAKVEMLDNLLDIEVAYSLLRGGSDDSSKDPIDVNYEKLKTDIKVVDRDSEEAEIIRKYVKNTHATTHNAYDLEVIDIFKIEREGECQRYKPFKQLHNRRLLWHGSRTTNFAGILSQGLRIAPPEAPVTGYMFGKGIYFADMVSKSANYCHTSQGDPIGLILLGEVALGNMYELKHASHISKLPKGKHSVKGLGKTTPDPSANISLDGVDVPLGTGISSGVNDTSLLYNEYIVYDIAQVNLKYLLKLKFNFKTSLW

A further data set addresses PARP1 (Homo sapiens, UniProt P09874 1-1014). Briefly: single-molecule oligo capture on lambda DNA; 5 nM PARP1, 20 nM oligo; 98% of oligos dissociate with 500 µM NAD+; Condensation (DIC, PARP1 truncations): 20 mM Tris pH 7.5, 50 mM NaCl, 7.5 mM MgCl2, 1 mM DTT; DNA curtains: 25-150 mM NaCl tested; temperature not stated. Particulars: protein: recombinant; tags: none stated after His-SUMO cleavage; label: 3' ATTO647N on S4; blunt.

The target in data set [2] is T1, mCherry-PARP1. Kind of data set: condensation, fluorescence microscopy; 4 µM protein; Condensation (DIC, PARP1 truncations): 20 mM Tris pH 7.5, 50 mM NaCl, 7.5 mM MgCl2, 1 mM DTT; DNA curtains: 25-150 mM NaCl tested; temperature not stated. The following applies: protein: recombinant; tags: mCherry (pET-SUMO-mCherry-PARP1); dumbbell: two hairpins with a single nick.

Chain of PARP1 (P09874 whole entry, the tested form may be a part): as above

B1: triplex DNA (nicked) (dsDNA)
DNA 1: GCTTAGCTTGGAATCGTATCATGTACACTCGTGTGCCGTGTAGACCGTGCC
DNA 2: TGTACATGATACGATTCCAAGCTAAGC
DNA 3: GGCACGGTCTACACGGCACACGAG
modifications: 5'-phosphate on S9
On to B1, for which the binding result in the data set with mCherry-PARP1 [1] was “binds”.

B2: 60 bp DNA-ATTO647N (dsDNA)
DNA 1: ACGAAGTCTTATGGCAAAACCGATGGACTATGTTTCGGGTAGCACCAGAAGTCTATAACA
DNA 2: TGTTATAGACTTCTGGTGCTACCCGAAACATAGTCCATCGGTTTTGCCATAAGACTTCGT
modifications: 5' BioTEG on S3
Take B2: the binding result with PARP1 is “binds”.
On to GCTGGCTTCGTAAGAAGCCAGCTCGCGGTCAGCTTGCTGACCGCG (structured_DNA, 5'-phosphate) [nicked dumbbell DNA], for which, in the data set with mCherry-PARP1 [2], the binding result is “binds”.
